Laboratory results taken from patent publication US20250188166A1 (BRIGHT PEAK THERAPEUTICS, published 2025).
Values joined by “and” are separate entries in the source; they are usually repeats but may differ in a detail not shown here. Equal values may be shown once.

B1: IL-18 polypeptide C165 (ligand)
chain: YFGKLESKLSIIRNLNDQVLFIDQGNRPLFEDMTDSDARDNAPRTIFIISMYKDRQPRGMAVTISVKCEKISTLSAENKIISFKEMNPPDNIKDTKSDIIFFQRSVPGHDNKMQFESSSYEGYFLAAEKERDLFKLILKKEDELGDRSIMFTVQNED
B2: IL-18 polypeptide SEQ ID NO: 59 (E6K, C38A, K53A) (ligand)
chain: YFGKLKSKLSVIRNLNDQVLFIDQGNRPLFEDMTDSDARDNAPRTIFIISMYADSQPRGMAVTISVKCEKISTLSCENKIISFKEMNPPDNIKDTKSDIIFFQRSVPGHDNKMQFESSSYEGYFLACEKERDLFKLILKKEDELGDRSIMFTVQNED
B3: IL-18 polypeptide C166 (ligand)
chain: YFGKLESKLSIIRNLNDQVLFIDQGNRPLFEDMTDSDARDNAPRTIFIISMYKDTQPRGMAVTISVKCEKISTLSAENKIISFKEMNPPDNIKDTKSDIIFFQRSVPGHDNKMQFESSSYEGYFLAAEKERDLFKLILKKEDELGDRSIMFTVQNED
B4: IL-18 polypeptide SEQ ID NO: 57 (E6K, C38S, K53A) (ligand)
chain: YFGKLKSKLSVIRNLNDQVLFIDQGNRPLFEDMTDSDSRDNAPRTIFIISMYADSQPRGMAVTISVKCEKISTLSCENKIISFKEMNPPDNIKDTKSDIIFFQRSVPGHDNKMQFESSSYEGYFLACEKERDLFKLILKKEDELGDRSIMFTVQNED
B5: IL-18 polypeptide C174 (ligand)
chain: YFGKLKSLLSIIRNLNDQVLFIDQGNRPLFEDMTDSDARDNAPRTIFIISMYADSQPRGMAVAISVKCEKISTLSAENKIISFKEMNPPDNIKDTKSDIIFFQRSVPGHDNKMQFESSSYEGYFLAAEKERDLFKLILKKEDELGDRSIMFTVQNED
B6: IL-18 polypeptide C168 (ligand)
chain: YFGKLESKLSIIRNLNDQVLFIDQGNRPLFEDMTDSDARDNAPRTIFIISMYKDSQPRGMAVTISVKCEKISTLSAENKIISFKEMNPPDNIKDTKSDIIFFQRKVPGHDNKMQFESSSYEGYFLAAEKERDLFKLILKKEDELGDRSIMFTVQNED
B7: IL-18 polypeptide C181 (ligand)
chain: YFGKLKSKLSIIRNLNDQVLFIDQGNRPLFEDMTDSDARDNAPRTIFIISMYADSQPRGMAVAISVKCEKISTLSAENKIISFKEMNPPDNIKDTKSDIIFFQRSVPGHDNKMQFESSSYEGYFLAAEKERDLFKLILKKEDELGDRSIMFTEQNED
B8: IL-18 polypeptide SEQ ID NO: 56 (E6K, K53A, C38S, C76S, C127S) (ligand)
chain: YFGKLKSKLSVIRNLNDQVLFIDQGNRPLFEDMTDSDSRDNAPRTIFIISMYADSQPRGMAVTISVKCEKISTLSSENKIISFKEMNPPDNIKDTKSDIIFFQRSVPGHDNKMQFESSSYEGYFLASEKERDLFKLILKKEDELGDRSIMFTVQNED
B9: IL-18 polypeptide SEQ ID NO: 60 (E6K, C38Q, K53A) (ligand)
chain: YFGKLKSKLSVIRNLNDQVLFIDQGNRPLFEDMTDSDQRDNAPRTIFIISMYADSQPRGMAVTISVKCEKISTLSCENKIISFKEMNPPDNIKDTKSDIIFFQRSVPGHDNKMQFESSSYEGYFLACEKERDLFKLILKKEDELGDRSIMFTVQNED
B10: IL-18 polypeptide C176 (ligand)
chain: YFGKLKSKLSIIRNLNDQVLFIDQGNRPLFEDMTDSDARDNAPRTIFIMSMYADSQPRGMAVAISVKCEKISTLSAENKIISFKEMNPPDNIKDTKSDIIFFQRSVPGHDNKMQFESSSYEGYFLAAEKERDLFKLILKKEDELGDRSIMFTVQNED
B11: IL-18 polypeptide C178 (ligand)
chain: YFGKLKSKLSIIRNLNDQVLFIDQGNRPLFEDMTDSDARDNAPRTIFIISMYADSQPRGMAVAISVKCEKISTLSAENKIISFKEMNPPDNIKDTKSDIIFFRRSVPGHDNKMQFESSSYEGYFLAAEKERDLFKLILKKEDELGDRSIMFTVQNED
B12: IL-18 polypeptide C183 (SEQ ID NO: 69) (ligand)
chain: YFGKLKSKLSIIRNLNDQVLFIDQGNRPLFEDMTDSDARDNAPRTIFIISGYADSQPRGMAVAISVKCEKISTLSAENKIISFKEMNPPDNIKDTKSDIIFFQRSVPGHDNKMQFESSSYEGYFLAAEKERDLFKLILKKEDELGDRSIMFTVQNED
B13: IL-18 polypeptide C167 (ligand)
chain: YFGKLESKLSIIRNLNDQVLFIDQGNRPLFEDMTDSDARDNAPRTIFIISMYKDSQPRGMAVTISVKCEKISTLSAENKIISFKEMNPPDNIKDTKSDIIFFQRIVPGHDNKMQFESSSYEGYFLAAEKERDLFKLILKKEDELGDRSIMFTVQNED
B14: IL-18 polypeptide C179 (ligand)
chain: YFGKLKSELSIIRNLNDQVLFIDQGNRPLFEDMTDSDARDNAPRTIFIISMYADSQPRGMAVAISVKCEKISTLSAENKIISFKEMNPPDNIKDTKSDIIFFRRSVPGHDNKMQFESSSYEGYFLAAEKERDLFKLILKKEDELGDRSIMFTVQNED
B15: IL-18 polypeptide SEQ ID NO: 42 (E06K, K53A, S55A, T63A) (ligand)
chain: YFGKLKSKLSVIRNLNDQVLFIDQGNRPLFEDMTDSDCRDNAPRTIFIISMYADAQPRGMAVAISVKCEKISTLSCENKIISFKEMNPPDNIKDTKSDIIFFQRSVPGHDNKMQFESSSYEGYFLACEKERDLFKLILKKEDELGDRSIMFTVQNED
B16: IL-18 polypeptide SEQ ID NO: 62 (E6K, C38A, K53A, C127A) (ligand)
chain: YFGKLKSKLSVIRNLNDQVLFIDQGNRPLFEDMTDSDARDNAPRTIFIISMYADSQPRGMAVTISVKCEKISTLSCENKIISFKEMNPPDNIKDTKSDIIFFQRSVPGHDNKMQFESSSYEGYFLAAEKERDLFKLILKKEDELGDRSIMFTVQNED
B17: IL-18 polypeptide SEQ ID NO: 34 (E06K, K53A, S55A) (ligand)
chain: YFGKLKSKLSVIRNLNDQVLFIDQGNRPLFEDMTDSDCRDNAPRTIFIISMYADAQPRGMAVTISVKCEKISTLSCENKIISFKEMNPPDNIKDTKSDIIFFQRSVPGHDNKMQFESSSYEGYFLACEKERDLFKLILKKEDELGDRSIMFTVQNED
B18: IL-18 polypeptide C177 (ligand)
chain: YFGKLKSKLSIIRNLNDQVLFIDQGNRPLFEDMTDSDARDNAPRTIFIRSMYADSQPRGMAVAISVKCEKISTLSAENKIISFKEMNPPDNIKDTKSDIIFFQRSVPGHDNKMQFESSSYEGYFLAAEKERDLFKLILKKEDELGDRSIMFTVQNED
B19: IL-18 polypeptide C184 (ligand)
chain: YFGKLRSKLSIIRNLNDQVLFIDQGNRPLFEDMTDSDARDNAPRTIFIISMYADSQPRGMAVAISVKCEKISTLSAENKIISFKEMNPPDNIKDTKSDIIFFQRSVPGHDNKMQFESSSYEGYFLAAEKERDLFKLILKKEDELGDRSIMFTVQNED
B20: IL-18 polypeptide C182 (ligand)
chain: YFGKLKSKLSIIRNLNDQVLFIDQGNRPLFEDMTDSDARDNAPRTIFIISMYADSQPRGMAVAISVKCEKISTLSAENKIISFKEMNPPDNIKDTKSDIIFFQRSVPGHDNKMQFESSSYEGYFLAAEKERDLFKLILKKEDELGDRSIMFTYQNED
B21: IL-18 polypeptide SEQ ID NO: 50 (E06K, K53A, T63A) (ligand)
chain: YFGKLKSKLSVIRNLNDQVLFIDQGNRPLFEDMTDSDCRDNAPRTIFIISMYADSQPRGMAVAISVKCEKISTLSCENKIISFKEMNPPDNIKDTKSDIIFFQRSVPGHDNKMQFESSSYEGYFLACEKERDLFKLILKKEDELGDRSIMFTVQNED
B22: IL-18 polypeptide SEQ ID NO: 54 (E06K, K53A, C38S, C68S, C76S, C127S, K70C) (ligand)
chain: YFGKLKSKLSVIRNLNDQVLFIDQGNRPLFEDMTDSDSRDNAPRTIFIISMYADSQPRGMAVTISVKSECISTLSSENKIISFKEMNPPDNIKDTKSDIIFFQRSVPGHDNKMQFESSSYEGYFLASEKERDLFKLILKKEDELGDRSIMFTVQNED
B23: IL-18 polypeptide C140 (SEQ ID NO: 72) (ligand)
chain: GGGGYFGKLKSKLSIIRNLNDQVLFIDQGNRPLFEDMTDSDARDNAPRTIFIISMYADSQPRGMAVAISVKCEKISTLSAENKIISFKEMNPPDNIKDTKSDIIFFQRSVPGHDNKMQFESSSYEGYFLAAEKERDLFKLILKKEDELGDRSIMFTVQNED

The binders below were run against T1, IL-18R on HEK-Blue IL18R reporter cells (UniProt Q13478 19-541; O95256 20-599) (assay: cell-based or functional assay).
T1 sequence (looked up) 1: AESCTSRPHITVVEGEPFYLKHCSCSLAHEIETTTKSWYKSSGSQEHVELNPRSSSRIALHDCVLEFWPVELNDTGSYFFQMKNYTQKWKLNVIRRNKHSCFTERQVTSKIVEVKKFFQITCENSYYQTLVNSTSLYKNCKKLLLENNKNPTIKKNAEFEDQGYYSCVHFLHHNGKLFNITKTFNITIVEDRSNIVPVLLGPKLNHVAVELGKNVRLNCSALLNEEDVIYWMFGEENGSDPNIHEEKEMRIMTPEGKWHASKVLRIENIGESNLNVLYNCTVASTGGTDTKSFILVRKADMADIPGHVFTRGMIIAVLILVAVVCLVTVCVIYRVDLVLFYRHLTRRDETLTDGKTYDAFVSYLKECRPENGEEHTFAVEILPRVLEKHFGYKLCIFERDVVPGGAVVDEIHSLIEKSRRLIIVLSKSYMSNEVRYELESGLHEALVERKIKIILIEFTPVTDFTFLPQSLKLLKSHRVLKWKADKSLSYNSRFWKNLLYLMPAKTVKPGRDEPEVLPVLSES
T1 sequence (looked up) 2: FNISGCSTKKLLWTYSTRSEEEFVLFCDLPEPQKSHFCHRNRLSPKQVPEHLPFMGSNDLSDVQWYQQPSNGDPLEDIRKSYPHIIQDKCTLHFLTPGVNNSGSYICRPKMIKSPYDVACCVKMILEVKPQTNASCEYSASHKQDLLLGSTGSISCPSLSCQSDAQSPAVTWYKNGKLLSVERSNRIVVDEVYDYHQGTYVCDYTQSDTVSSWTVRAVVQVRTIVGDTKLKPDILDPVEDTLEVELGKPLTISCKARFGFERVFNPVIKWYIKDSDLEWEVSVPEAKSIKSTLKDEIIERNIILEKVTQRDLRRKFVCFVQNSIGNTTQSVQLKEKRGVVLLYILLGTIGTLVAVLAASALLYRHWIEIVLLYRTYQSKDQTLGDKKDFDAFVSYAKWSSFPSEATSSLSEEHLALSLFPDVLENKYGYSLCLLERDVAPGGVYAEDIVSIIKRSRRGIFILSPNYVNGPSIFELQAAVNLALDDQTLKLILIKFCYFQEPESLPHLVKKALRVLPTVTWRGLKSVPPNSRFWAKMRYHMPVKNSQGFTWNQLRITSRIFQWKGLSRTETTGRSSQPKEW

Point of comparison: B3, “EC50, HEK-Blue IL18R SEAP reporter” value 4.73 pM. Against it:
- B1 — 2.5-fold lower, 1.91 pM
- B2 — 18-fold lower, 0.268 pM
- B5 — 16-fold lower, 0.29 pM
- B6 — 1.6-fold higher, 7.73 pM
- B7 — 47-fold lower, 0.1 pM
- B8 — within 1.5-fold, 3.73 pM
- B9 — 23-fold lower, 0.203 pM
- B10 — 68-fold lower, 0.07 pM
- B11 — 18-fold lower, 0.26 pM
- B12 — 47-fold lower, 0.1 pM
- B13 — within 1.5-fold, 5.37 pM
- B14 — 12-fold lower, 0.4 pM
- B15 — 6-fold lower, 0.79 pM
- B16 — 28-fold lower, 0.17 pM
- B17 — 58-fold higher, 272 pM
- B18 — 120-fold lower, 0.04 pM
- B19 — 120-fold lower, 0.04 pM
- B20 — 59-fold lower, 0.08 pM
- B21 — 2.7-fold lower, 1.77 pM
- B22 — 1.9-fold higher, 9.12 pM
- B23 — 1.9-fold lower, 2.5 pM

In the case of B4, the “EC50, HEK-Blue IL18R SEAP reporter” value is reported as 0.86 pM and 0.53 pM.
